Biological target: T1, HIC2 ZF2-5 (Homo sapiens, UniProt Q96JB3 503-615)
T1 sequence: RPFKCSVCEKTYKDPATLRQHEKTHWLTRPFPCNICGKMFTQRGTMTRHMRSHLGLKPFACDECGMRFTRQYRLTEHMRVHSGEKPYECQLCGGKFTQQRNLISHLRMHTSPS
Experiment: X-ray crystallography

B1: +55 enhancer HIC2 motif-2/GATA 16-mer (dsDNA)
DNA 1: AGATAATGCCAACAGT
DNA 2: ACTGTTGGCATTATCT
Question: Does B1 bind?
Answer: binds

Source: article PMC9940634
